The target in assay [1] is biotinylated MPT64 (Rv1980c) polypeptide (M. tuberculosis H37Rv).
Assay [2] concerns the target biotinylated MTC28 (Rv0040c) polypeptide (M. tuberculosis H37Rv).
Assay [3] deals with biotinylated MPT63 (Rv1926c) polypeptide (M. tuberculosis H37Rv).
The target in assay [4] is biotinylated Ag85B (Rv1886c) polypeptide (M. tuberculosis H37Rv) (UniProt A5U3Q3).
Assay [5] addresses biotinylated Ag85A (Rv3804c) polypeptide (M. tuberculosis H37Rv).

The record followed here is patent publication US20200363410A1.

Sequence of streptavidin (P22629 37-163 limits assumed): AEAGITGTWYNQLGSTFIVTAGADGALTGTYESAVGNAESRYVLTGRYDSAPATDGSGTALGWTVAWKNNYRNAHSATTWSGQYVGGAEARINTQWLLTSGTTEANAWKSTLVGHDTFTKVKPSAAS

On to “streptavidin (from UniProt P22629 37-163)”, for which the Extent of biotinylation (share of protein adsorbed on streptavidin beads) in assay [1] amounted to 99.8%; in assay [2], 99.8%; in assay [3], 99.9%; in assay [4], 99.9%; in assay [5], 99.9%. Further, the Fold reduction in protein reactivity after adsorption in assay [1] came out at 500 fold; in assay [2] it was 500 fold; in assay [3], 1000 fold; in assay [4], 1000 fold; in assay [5], 4000 fold.
